One test relates to MC26 mouse colon tumor. To be noted: treated animals; 25 days in the control animals; cited from earlier work.
Test [1] addresses T1, gastrin-receptor expressed by AR42J cells (Rattus norvegicus, UniProt P30553).
T1 construct: host or cells: AR42J rat pancreatic adenocarcinoma cells
T1 sequence (P30553 1-452): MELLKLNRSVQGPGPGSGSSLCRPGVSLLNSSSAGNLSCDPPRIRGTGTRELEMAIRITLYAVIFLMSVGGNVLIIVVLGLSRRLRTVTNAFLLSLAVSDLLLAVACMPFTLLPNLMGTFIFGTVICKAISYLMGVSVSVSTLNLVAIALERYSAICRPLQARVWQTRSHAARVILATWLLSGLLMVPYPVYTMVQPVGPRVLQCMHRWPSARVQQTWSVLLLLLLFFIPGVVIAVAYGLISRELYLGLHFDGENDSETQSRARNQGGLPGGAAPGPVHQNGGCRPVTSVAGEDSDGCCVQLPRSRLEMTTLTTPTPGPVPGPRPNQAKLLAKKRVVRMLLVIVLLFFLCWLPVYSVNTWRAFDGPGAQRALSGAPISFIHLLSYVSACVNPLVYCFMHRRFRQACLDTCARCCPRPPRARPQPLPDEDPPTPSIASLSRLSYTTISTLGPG
The experiment in a line: Immunofluorescence binding of antibodies to AR42J cells. To be noted: peptide inhibitor 1.0 mg/ml; antibody 100 μg/ml. The method, then:
Binding of the GRP1-Ser specific antibodies to AR42J cells was assessed by immunofluorescence. AR42J cells were grown as in the previous Examples and harvested with cell scrapers from 175 cm^2 T-flasks and washed twice with buffer (PBS with 0.02% NaN3) by centrinugation (400×g for 7 min). The cells were kept at 0-4° C. for all manipulations. A single cell suspension was prepared in buffer, and the cell concentration was adjusted to 10^6 cells/ml. The cell suspension was added to 1.5 ml microfuge tubes (1 ml/tube). The cells were pelleted by centrifugation and supernatants were aspirated. The cells were resuspended in buffer (0.1 ml/tube) containing peptide inhibitors (1.0 mg/ml). The inhibitors included GRP1-Ser, GnRH, hG17(9)-Ser and buffer (no inhibitor). Antibodies, including the rabbit anti-GRP1-Ser (100 μg/ml), affinity purified rabbit anti-DT (negative control, 100 μg/ml), mouse anti-AR42J antiserum (positive control, 1:100 dilution, heat inactivated) or normal mouse serum were added to the appropriate tubes and the contents were mixed. The cells were incubated for 1 hour, with occasional mixing. […] Fluorescence was scored on a scale of 0 to 4, with 0 representing background fluorescence (obtained with the normal mouse serum) and 4 representing maximal fluorescence (obtained with the mouse anti-AR42J positive control antiserum).

Test [2] deals with T2, CCK-B/gastrin-receptor on AR42J cells (Rattus norvegicus, UniProt P30553).
T2 construct: host or cells: AR42J rat pancreatic adenocarcinoma cells
T2 sequence (P30553 1-452): T1 sequence (P30553 1-452)
The experiment in a line: Radioligand (125I-hG17) binding inhibition on AR42J cells. The method, then:
AR42J tumor cells (European Collection of Animal Cell cultures, Porton Down, UK) are derived from a rat pancreatic adenocarcinoma and are known to have well characterized CCK-B/gastrin-receptors. Thus AR42J were tested to confirm the expression of CCK-B/gastrin-receptor and specificity of the receptor for hH17 by radioligand inhibition. AR42J cells were cultured at 37° C. with 7% CO2 in complete RPMI 1640 (Sigma) supplemented with 10% FCS (Gemini Bioproducts), 2 mM glutamine (JRH Biosciences), 1 mM sodium pyruvate (JRH B.) and 50 μg/ml gentamicin (Gemini Bioproducts). The cells were harvested from 175 cm^2 T-flasks (Falcon Plastics) with PBS containing 0.25% EDTA, then washed twice with PBS (no EDTA) by centrifugation (400×g for 10 min). The cells were kept at 0-4° C. for all manipulations. A single cell suspension was prepared in buffer, and the cell concentration was adjusted to 10^6 cells/ml. Aliquots of 1 ml of cell suspension were added to 12×75 mm culture tubes, then the cells were centrifuged and the supernatants discarded. The cells were resuspended in PBS (0.1 ml/tube) containing human G17 (hG17), gonadotropin releasing hormone (GnRH), or no peptide. The peptide concentrations were 1.0 ng/ml, 100 ng/ml and 10 μg/ml. An aliquot of 0.1 ml of ^125I-hG17 (NEN), containing approximately 26,300 CPM (specific activity, 2200 Ci/mmol), was added to each tube. The tubes were vortexed, then incubated for 15 minutes. The cells were washed twice with PBS, then counted in a γ counter (Wallac). Samples were run in duplicate. Background counts were subtracted, then the % inhibition of ^125I-hG17 binding by each inhibitor was calculated using the equation: % Inhibition=(100)(1−((CPMuninhibited−CPMinhibited)/CPMuninhibited).

For test [3], the system named is affinity purified anti-GRP1 Ab binding to GRP1-Ser-BSA. The experiment in a line: Inhibition ELISA, specificity of affinity purified anti-GRP1 antibodies. On the set-up: species or system rabbit. To be noted: anti-GRP1 Ab 10 ng/ml; inhibitor 1:10 dilution series. The method, then:
The following experiments were performed to establish the specificity of antibodies raised in rabbits against the GRP1-DT peptide containing Ser spacer described Example 1 using Method B. A series of tests were conducted to assess the specificity of rabbit antibodies induced by immunization with the GRP1-DT and affinity purified by immunoadsorption over a GRP1-Ser Sepharose column.
An inhibition ELISA was used to assess the specificity of the affinity purified antibodies for GRP1-Ser peptide. The assays were run as follows: GRP1-Ser-BSA conjugate was coated onto 96 well plates (Immulon U bottom) by overnight incubation of 50 μl of a 2 μg/ml solution of conjugate in glycine buffer (0.1M, pH=9.5) at 4° C. Affinity purified anti-GRP1 Ab (at a final concentration of 10 ng/ml) was combined with various inhibitors (in 1:10 dilution series) and incubated for 1 hour at room temperature. The inhibitors included GRP1-Ser, GRP1 EPT, Ser, human gastrin 17(1-9)-Ser spacer (hG17(9)-Ser), GRP1 EPT+Ser, and buffer (no inhibitor). Incubation buffer consisted of PBS+0.5% BSA+0.05% Tween 20+0.02% NaN3. Subsequent steps used the same buffer without BSA. The 96 well plates were washed free of nonbound GRP1-Ser-BSA, and the Ab+inhibitor mixtures were added (50 μl/well). After 1 hour, the plates were washed and a goat anti-rabbit Ig (H+L) alkaline phosphatase conjugate (Zymed) was added (1:2000 dilution). […] Following a 60 minute incubation, absorbance was measured on a MRX reader (Dynatech Laboratories). Samples were run in duplicate, and means were calculated for each concentration. Background binding (established with affinity purified rabbit anti-GnRH antibodies) was subtracted from all values, and the % Inhibition relative to no inhibitor added (anti-GRP1 Ab+buffer) was calculated for each inhibitor tested: % Inhibition=(100)(1−((Auninhibited−Ainhibited)/Auninhibited), where A=Absorbance. The results are shown in FIG. 4.
(ELISA stands for enzyme-linked immunosorbent assay.)

Data on 6 compounds can be found in patent US6548066B1, “Immunogenic compositions to the CCK-B/gastrin receptor and methods for the treatment of tumors” (Aphton Corporation, priority 1997, dated 2003).

Take `CCCN(CCC)C(=O)C(CCC(=O)O)NC(=O)c1ccccc1` (stereo not drawn) [proglumide]: in the test with MC26 mouse colon tumor, the “survival of xenograft mice bearing MC26” value is listed as 39 days.
For the compound GnRH: gonadotropin releasing hormone, the “inhibition of anti-GRP1-Ser antibody binding to AR42J cells” value in test [1] was “failed to inhibit”. Further, the “inhibition of 125I-hG17 binding to AR42J cells” value is given as 6% in test [2] (100 pg, considered to be nonspecific) and “no inhibition” in test [2] (two highest concentrations tested).
With KLNRSVQGTGPGPGASL [GRP1 EPT], the “inhibition of antibody binding to GRP1-Ser-BSA” value (shortened to “inhibition of antibody binding”) in test [3] is on record as “Approximately 60%”.
On to SSPPPPC [Ser spacer], for which, in test [3], the “inhibition of antibody binding” value is “No inhibition”.
With “hG17(9)-Ser: amino-terminal nine residues of hG17 followed by the Ser spacer (QGPWLEEEESSPPPPPC)”, in test [1], the “inhibition of anti-GRP1-Ser antibody binding to AR42J cells” value was “failed to inhibit”. Also, the “inhibition of antibody binding” value in test [3] is “No inhibition”.
On to hG17: human G17, heptadecagastrin, for which, in test [2] (1 μg per tube, highest concentration tested), the “inhibition of 125I-hG17 binding to AR42J cells” value is 32%.
